# From the supplement of paper PMC10567573
# B1: ANKRD9 (parent)
# chain: VGAAGSARQELLGDRPRWQRLLGE
# Variants of: B1
# Assay: protein stability index of a GFP-peptide fusion (GPS, HEK-293T) (PSI 1-6); higher = more stable
# Conditions: c terminus: a fixed tail appended
# 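Further: lentivirally expressed fusions sorted by FACS into six bins by GFP to DsRed ratio, PSI derived from sequencing read proportions per bin multiplied by bin number.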
row,Variant,protein stability index
1,IGAAGSARQELLGDRPRWQRLLGE [V1I],2.35
2,VGAAGSARQELLGDRPREQRLLGE [W18E],4.45
3,VGAAGKARQELLGDRPRWQRLLGE [S6K],2.72
4,VGACGSARQELLGDRPRWQRLLGE [A4C],2.09
5,VGAAGSTRQELLGDRPRWQRLLGE [A7T],3.62
6,VGAAGSARQELLGDRPRWIRLLGE [Q19I],2.98
7,VGAAGSARQELLGDRPRWQQLLGE [R20Q],2.68
8,VGAAGSARQELLGDRSRWQRLLGE [P16S],3.16
9,VGALGSARQELLGDRPRWQRLLGE [A4L],3.18
10,VGAAGSARQELLGDRPRWQSLLGE [R20S],2.87
11,VGQAGSARQELLGDRPRWQRLLGE [A3Q],3
12,VGAAGSARHELLGDRPRWQRLLGE [Q9H],3.38
13,VGAAGSARQELFGDRPRWQRLLGE [L12F],2.57
14,VGAAGSARQELLGDRPRWQRLLGN [E24N],3.17
15,VGAAGSARQELLGDRPRWQRLLLE [G23L],3.58
16,RGAAGSARQELLGDRPRWQRLLGE [V1R],2.75
17,VGRAGSARQELLGDRPRWQRLLGE [A3R],3.06
18,VQAAGSARQELLGDRPRWQRLLGE [G2Q],4.06
19,VGAAGSARQELLGDRPRWQRLSGE [L22S],3.96
20,VGAATSARQELLGDRPRWQRLLGE [G5T],2.3
21,VGAAGSARQWLLGDRPRWQRLLGE [E10W],1.76
22,VGAAGSAHQELLGDRPRWQRLLGE [R8H],3.39
23,VGAAGSARQCLLGDRPRWQRLLGE [E10C],2.75
24,VGAAYSARQELLGDRPRWQRLLGE [G5Y],1.93

row,Variant,protein stability index
1,VGAAGEARQELLGDRPRWQRLLGE [S6E],3.88
2,VGAAGSARQELLTDRPRWQRLLGE [G13T],2.97
3,VGAAGSARQELLGDRIRWQRLLGE [P16I],2.92
4,VGAAESARQELLGDRPRWQRLLGE [G5E],4.56
5,VGAAGSARQELLYDRPRWQRLLGE [G13Y],2.77
6,VGAAGSARQELLGDRPSWQRLLGE [R17S],4.09
7,VGAAGCARQELLGDRPRWQRLLGE [S6C],1.21
8,VGAAGSARQELLGDRNRWQRLLGE [P16N],3.88
9,VGAAGSARQELLHDRPRWQRLLGE [G13H],3.46
10,VGAAGSARQELLGDRPRWQRLLYE [G23Y],2.88
11,VGAAGSARQELLGDRPRDQRLLGE [W18D],4.63
12,VGAAGSQRQELLGDRPRWQRLLGE [A7Q],4.21
13,VGAAGSARQNLLGDRPRWQRLLGE [E10N],3.22
14,VGCAGSARQELLGDRPRWQRLLGE [A3C],1.52
15,VGWAGSARQELLGDRPRWQRLLGE [A3W],2.53
16,VGAAGSARQELLGDRPRWQRLFGE [L22F],2.93
17,VGAAGSARQELLGDRGRWQRLLGE [P16G],2.98
18,VGIAGSARQELLGDRPRWQRLLGE [A3I],3.48
19,VGAAGSARQELLGGRPRWQRLLGE [D14G],3.18
20,VGAAGSARQELLGDDPRWQRLLGE [R15D],4.12
21,VGAAGSARQELLRDRPRWQRLLGE [G13R],2.81
22,VGAAGSARQELLGDRPRWQDLLGE [R20D],1.25
23,VGAAGSARQELLGDRPRWQTLLGE [R20T],2.67
24,VGAAGSARQELLGDRPRWQRLLRE [G23R],2.99

row,Variant,protein stability index
1,TGAAGSARQELLGDRPRWQRLLGE [V1T],3.38
2,VGAVGSARQELLGDRPRWQRLLGE [A4V],2.92
3,VGAAGSARQELLEDRPRWQRLLGE [G13E],3.92
4,VGAAGFARQELLGDRPRWQRLLGE [S6F],2.85
5,VGAAGSARQELLGDRPRWQRLLHE [G23H],2.61
6,VGAAGSAEQELLGDRPRWQRLLGE [R8E],4.01
7,VGAAGSARQMLLGDRPRWQRLLGE [E10M],2.63
8,VGAAGTARQELLGDRPRWQRLLGE [S6T],3.01
9,VGAAGSLRQELLGDRPRWQRLLGE [A7L],4.03
10,VGAAGSARQELLGDRPRNQRLLGE [W18N],4.11
11,VGAAGSARQELLGDRPRWQVLLGE [R20V],2.81
12,VGAAGSARQELLGDRRRWQRLLGE [P16R],3.31
13,VFAAGSARQELLGDRPRWQRLLGE [G2F],2.57
14,VGGAGSARQELLGDRPRWQRLLGE [A3G],3.49
15,VGAAVSARQELLGDRPRWQRLLGE [G5V],2.9
16,VGAAGSARQELLGDRPRWQRHLGE [L21H],2.86
17,VGAAGSARQELIGDRPRWQRLLGE [L12I],4.09
18,VGAAGSARQELLGDRPRWQRLDGE [L22D],4.11
19,VGAAGSARQELLGDRPRWQRLLGW [E24W],2.33
20,VGAAGSARQELLKDRPRWQRLLGE [G13K],3.39
21,VGAAGSARQELLGDRLRWQRLLGE [P16L],3.12
22,VGAAGSARQGLLGDRPRWQRLLGE [E10G],2.55
23,VGAAGSARQELLGDRPRWQRLLGQ [E24Q],2.63
24,VGVAGSARQELLGDRPRWQRLLGE [A3V],3.89

row,Variant,protein stability index
1,VGAAGSARCELLGDRPRWQRLLGE [Q9C],2.56
2,YGAAGSARQELLGDRPRWQRLLGE [V1Y],2.56
3,VGAAGSARQELLGDRYRWQRLLGE [P16Y],3.28
4,VGAAGSARQYLLGDRPRWQRLLGE [E10Y],3.03
5,VGAAGSARQELLGDRQRWQRLLGE [P16Q],2.65
6,VGAAGSFRQELLGDRPRWQRLLGE [A7F],2.49
7,VGAAGSVRQELLGDRPRWQRLLGE [A7V],2.73
8,VGAAGSARQELLNDRPRWQRLLGE [G13N],3.55
9,VGAAGSARQELLGDRPRWHRLLGE [Q19H],3.14
10,VGAAGSARQELLGDRPKWQRLLGE [R17K],3.53
11,VGAAGSARQELLADRPRWQRLLGE [G13A],3.9
12,VGAAGSARQELLGQRPRWQRLLGE [D14Q],2.35
13,VGAAGSARQELLGDRPHWQRLLGE [R17H],4.01
14,VGAAGSARQLLLGDRPRWQRLLGE [E10L],2.13
15,VGAKGSARQELLGDRPRWQRLLGE [A4K],2.11
16,VGAAGSARQELLGDRPRWMRLLGE [Q19M],3.26
17,VGAAGSARQELGGDRPRWQRLLGE [L12G],3.79
18,VGAAGSWRQELLGDRPRWQRLLGE [A7W],2.53
19,VGAAGSARQELLGDRPRWARLLGE [Q19A],2.15
20,VGATGSARQELLGDRPRWQRLLGE [A4T],4.35
21,VGDAGSARQELLGDRPRWQRLLGE [A3D],3.81
22,VGAAGSARQELKGDRPRWQRLLGE [L12K],3.95
